Test [1] deals with single chain H2A.Z-H2B (single stranded H2A.Z-H2B protein) (budding yeast). The test can be described thus: CPMG relaxation dispersion NMR.
Test [2] shares this target. Description: ITC. (Isothermal titration calorimetry measures the heat released or taken up as one component is titrated into another.)

The record followed here is paper PMC2768378.

B1: Chz.core (residues 71–132 of Chz1) (domain or fragment)
chain: DMDDAKLDALMGNEGEEEEDDLAEIDTSNIITSGRRTRGKVIDYKKTAEELDKKEPSTGSKD
Regarding B1, the values for the dissociation constant Kd in test [1] and in test [2] were 0.22 µM and 0.1 µM, respectively. Moreover, the koff (in general, a measure of how fast the partners let go of each other) in test [1] stood at 22 s⁻¹.
